In paper PMC5708649, “A novel Porphyromonas gingivalis enzyme: An atypical dipeptidyl peptidase III with an ARM repeat domain” (PLoS ONE, 2017) one finds Km, kcat and kcat/Km data, which are given here for one substance.

The subject of data set [1] is N=C(N)NCCC[C@H](NC(=O)[C@@H](N)CCCNC(=N)N)C(=O)Nc1ccc2ccccc2c1. The experiment in a line: purified protein, by the assay type. To be noted: pH 8.0; 26.0 °C.
Data set [2] deals with Cc1cc(=O)oc2cc(NC(=O)[C@H](CCCNC(=N)N)NC(=O)[C@@H](N)CCCNC(=N)N)ccc12. The experiment in a line: purified protein, by the assay type. To be noted: pH 8.0; 26.0 °C.

By Km is commonly meant the substrate concentration at which the rate is half of its maximum. As a reminder, the kcat is the maximal rate divided by the concentration of active sites. One may read the kcat/Km as the second-order rate constant that governs catalysis at low substrate concentration. Consider “DPP III fragment (1–679 aa) (Porphyromonas gingivalis W83)”, for which, in data set [1], the Km was determined as 4.37 ± 0.42 µM, the kcat was 0.0032 ± 0.0005 s⁻¹ and the kcat/Km worked out at 732 M⁻¹ s⁻¹. Also, in data set [2], the Km amounted to 9.97 ± 0.44 µM, the kcat was determined as 0.0024 ± 0.0014 s⁻¹ and the kcat/Km was 241 M⁻¹ s⁻¹.
